Results: FireProtDB (doi:10.1110/ps.0237703)

Settings: pH 8, Thermal, CD, Bis-Tris propane ammonium acetate 0.05 M 0.05 M, reversible: No, whole UniProt chain shown

B1: wild type, Q8NJY6 (protein)
chain: MKFLQVLPAILPAALAQTSCDQYATFSGNGYIVSNNLWGASAGSGFGCVTSVSLNGAASWHADWQWSGGQNNVKSYQNVQINIPQKRTVNSIGSMPTTASWSYSGSDIRANVAYDLFTAANPNHVTYSGDYELMIWLGKYGDIGPIGSSQGTVNVGGQTWTLYYGYNGAMQVYSFVAQSNTTSYSGDVKNFFNYLRDNKGYNAGGQYVLSYQFGTEPFTGSGTLNVASWTASIN
B1 gave a Tm (Trichoderma citrinoviride) of 49.2 °C.

B2: wild type, O00095 (protein)
chain: MKFLQVLPALIPAALAQTSCDQWATFTGNGYTVSNNLWGASAGSGFGCVTAVSLSGGASWHADWQWSGGQNNVKSYQNSQIAIPQKRTVNSISSMPTTASWSYSGSNIRANVAYDLFTAANPNHVTYSGDYELMIWLGKYGDIGPIGSSQGTVNVGGQSWTLYYGYNGAMQVYSFVAQTNTTNYSGDVKNFFNYLRDNKGYNAAGQYVLSYQFGTEPFTGSGTLNVASWTASIN
In the case of B2, the Tm (Hypocrea jecorina) is reported as 54.4 °C.

B3: wild type, Q8NJZ1 (protein)
chain: MKANIVILSLFAPLAAVAQTLCGQYSSNTQGGYIFNNNMWGMGSGSGSQCTYVDKVWAEGVAWHTDWSWSGGDNNVKSYPYSGRELGTKRIVSSIKSISSGADWDYTGSNLRANAAYDIFTSANPNHATSSGDYEVMIWLGRYGGVYPIGNSIGTVRAAGRDWALHIGYNGAMKVFSFVAANPVTRFDGEIMDFFYLLRDMQGYPMTSQYLLTLQFGTEPFTGSGAKFNCWYFGATLSYW
Work on B3 yielded a Tm (Bionectria ochroleuca) of 45.9 °C.
